Experimental data from article PMC6547619 (2019).

B1: E. coli rBAG3 (Abcam) (natural protein)
chain: not shown
B2: BAG3-H2L4 (antibody, V domains shown)
VH: QVQLVQSGAEVKKPGASVKVSCKASGFNIKDTYMYWVRQAPGQGLEWMGGVDPANGNTRYDPKFQGRVTLTRDTSTSTVYMELSSLRSEDTAVYYCGRDGAMDYWGQGTLVTVSS
VL: DIVMTQSPDSLAVSLGERATMSCKSSQSLLYSSNQKNYLAWHQQKPGQPPKLLIYWASTRESGVPDRFSGSGSGTDFTLTISSLQAEDLAIYYCQQYYTYPLTFGAGTKLEIK
B3: BAG3-H4L2 (antibody, V domains shown)
VH: EVQLVQSGAEVKKPGATVKISCKVSGFNIKDTYMYWVQQAPGKGLEWMGGVDPANGNTRYDPKFQGRVTITADTSTDTAYMELSSLRSEDTAVYYCARDGAMDYWGQGTLVTVSS
VL: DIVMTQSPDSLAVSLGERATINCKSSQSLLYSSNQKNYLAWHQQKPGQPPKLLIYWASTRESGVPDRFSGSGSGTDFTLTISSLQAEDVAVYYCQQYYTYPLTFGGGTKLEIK

Legend:
Test in all cases: SPR
[1] = target: BAG3-H1L3
[2] = target: BAG3-H2L2
[3] = target: BAG3-H2L3
[4] = target: BAG3-H4L3
[5] = target: BAG3-H3L3
[6] = target: BAG3-H4L4
[7] = target: BAG3-H3L2
[8] = target: BAG3-H1L2
[9] = target: BAG3-H3L4
[10] = target: BAG3-H1L4
[11] = target: B1

Kd [1] | Kd [2] | Kd [3] | Kd [4] | Kd [5] | Kd [6] | Kd [7] | Kd [8] | Kd [9] | Kd [10] | Kd [11] | Binder
2.83 nM | 2.63 nM | 1.98 nM | 1.98 nM | 1.61 nM | 1.72 nM | 1.78 nM | 2.84 nM | 1.7 nM | 2.34 nM | – | B1
– | – | – | – | – | – | – | – | – | – | 2.04 nM | B2
– | – | – | – | – | – | – | – | – | – | 2.02 nM | B3
